These results are taken from the supplement of paper PMC10567573.

First the molecules themselves.
B1: GNB5 (parent)
chain: YYPSGDAFASGSDDATCRLYDLRA
B2: CLINT1 (parent)
chain: VVTSAREHIYDLRSLENYHFVDEH
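Note: lentivirally expressed fusions sorted by FACS into six bins by GFP to DsRed ratio, PSI derived from sequencing read proportions per bin multiplied by bin number.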

Variants of B1 are the subject of the first series. Put plainly: protein stability index of a GFP-peptide fusion (GPS, HEK-293T) (PSI 1-6); higher = more stable. The settings on record: c terminus: a fixed tail appended.
YYYSGDAFASGSDDATCRLYDLRA [P3Y]: the protein stability index is 2.

YYLSGDAFASGSDDATCRLYDLRA [P3L]: the protein stability index stood at 2.31.

YYQSGDAFASGSDDATCRLYDLRA [P3Q]: the protein stability index was 3.21.

Consider YYHSGDAFASGSDDATCRLYDLRA [P3H], for which the protein stability index worked out at 3.04.

YYVSGDAFASGSDDATCRLYDLRA [P3V]: the protein stability index was determined as 2.31.

For the variant YYRSGDAFASGSDDATCRLYDLRA [P3R], the protein stability index was 2.88.

Take YYSSGDAFASGSDDATCRLYDLRA [P3S]: the protein stability index worked out at 3.27.

In the case of YYASGDAFASGSDDATCRLYDLRA [P3A], the protein stability index amounted to 2.55.

Consider YYKSGDAFASGSDDATCRLYDLRA [P3K], for which the protein stability index was 2.64.

Turning to YYNSGDAFASGSDDATCRLYDLRA [P3N], the protein stability index was 3.36.

For the variant YYWSGDAFASGSDDATCRLYDLRA [P3W], the protein stability index was found to be 2.32.

Turning to YYCSGDAFASGSDDATCRLYDLRA [P3C], the protein stability index is 2.75.

As to YYESGDAFASGSDDATCRLYDLRA [P3E], the protein stability index turned out to be 4.01.

Consider YYGSGDAFASGSDDATCRLYDLRA [P3G], for which the protein stability index was 3.33.

As to YYTSGDAFASGSDDATCRLYDLRA [P3T], the protein stability index was found to be 3.52.

YYMSGDAFASGSDDATCRLYDLRA [P3M]: the protein stability index was 2.99.

As for YYFSGDAFASGSDDATCRLYDLRA [P3F], the protein stability index was found to be 2.5.

YYDSGDAFASGSDDATCRLYDLRA [P3D]: the protein stability index turned out to be 3.46.

Regarding YYISGDAFASGSDDATCRLYDLRA [P3I], the protein stability index was found to be 2.

With YLPSGDAFASGSDDATCRLYDLRA [Y2L], the protein stability index stood at 3.34.

Consider YKPSGDAFASGSDDATCRLYDLRA [Y2K], for which the protein stability index came out at 4.08.

Turning to YTPSGDAFASGSDDATCRLYDLRA [Y2T], the protein stability index turned out to be 1.96.

For the variant YGPSGDAFASGSDDATCRLYDLRA [Y2G], the protein stability index stood at 2.26.

In the case of YVPSGDAFASGSDDATCRLYDLRA [Y2V], the protein stability index is 2.02.

As to YDPSGDAFASGSDDATCRLYDLRA [Y2D], the protein stability index came out at 4.29.

With YPPSGDAFASGSDDATCRLYDLRA [Y2P], the protein stability index is 3.16.

Consider YSPSGDAFASGSDDATCRLYDLRA [Y2S], for which the protein stability index stood at 2.18.

On to YNPSGDAFASGSDDATCRLYDLRA [Y2N], for which the protein stability index was found to be 3.55.

As for YIPSGDAFASGSDDATCRLYDLRA [Y2I], the protein stability index is 2.25.

Take YQPSGDAFASGSDDATCRLYDLRA [Y2Q]: the protein stability index amounted to 2.4.

Take YFPSGDAFASGSDDATCRLYDLRA [Y2F]: the protein stability index was 2.03.

In the case of YWPSGDAFASGSDDATCRLYDLRA [Y2W], the protein stability index amounted to 1.75.

For YAPSGDAFASGSDDATCRLYDLRA [Y2A], the protein stability index was 1.79.

Regarding YEPSGDAFASGSDDATCRLYDLRA [Y2E], the protein stability index is 4.83.

YMPSGDAFASGSDDATCRLYDLRA [Y2M]: the protein stability index worked out at 2.48.

For YRPSGDAFASGSDDATCRLYDLRA [Y2R], the protein stability index is 3.66.

On to YCPSGDAFASGSDDATCRLYDLRA [Y2C], for which the protein stability index came to 2.09.

Consider YHPSGDAFASGSDDATCRLYDLRA [Y2H], for which the protein stability index was 2.69.

For NYPSGDAFASGSDDATCRLYDLRA [Y1N], the protein stability index is 3.71.

Take PYPSGDAFASGSDDATCRLYDLRA [Y1P]: the protein stability index came to 3.72.

Turning to IYPSGDAFASGSDDATCRLYDLRA [Y1I], the protein stability index is 3.52.

As for VYPSGDAFASGSDDATCRLYDLRA [Y1V], the protein stability index worked out at 3.72.

As to WYPSGDAFASGSDDATCRLYDLRA [Y1W], the protein stability index stood at 2.86.

For the variant GYPSGDAFASGSDDATCRLYDLRA [Y1G], the protein stability index was 3.7.

As for FYPSGDAFASGSDDATCRLYDLRA [Y1F], the protein stability index amounted to 2.65.

For HYPSGDAFASGSDDATCRLYDLRA [Y1H], the protein stability index was 3.95.

Regarding AYPSGDAFASGSDDATCRLYDLRA [Y1A], the protein stability index stood at 3.83.

KYPSGDAFASGSDDATCRLYDLRA [Y1K]: the protein stability index was 3.55.

As to LYPSGDAFASGSDDATCRLYDLRA [Y1L], the protein stability index was 3.84.

For CYPSGDAFASGSDDATCRLYDLRA [Y1C], the protein stability index was determined as 3.3.

In the case of EYPSGDAFASGSDDATCRLYDLRA [Y1E], the protein stability index is 3.81.

DYPSGDAFASGSDDATCRLYDLRA [Y1D]: the protein stability index came to 4.09.

Turning to SYPSGDAFASGSDDATCRLYDLRA [Y1S], the protein stability index came out at 3.99.

For the variant QYPSGDAFASGSDDATCRLYDLRA [Y1Q], the protein stability index was found to be 3.81.

Consider MYPSGDAFASGSDDATCRLYDLRA [Y1M], for which the protein stability index came out at 3.67.

Take TYPSGDAFASGSDDATCRLYDLRA [Y1T]: the protein stability index was determined as 3.6.

RYPSGDAFASGSDDATCRLYDLRA [Y1R]: the protein stability index stood at 3.58.

Consider YYPHGDAFASGSDDATCRLYDLRA [S4H], for which the protein stability index came to 2.87.

Regarding YYPKGDAFASGSDDATCRLYDLRA [S4K], the protein stability index is 3.33.

In the case of YYPCGDAFASGSDDATCRLYDLRA [S4C], the protein stability index amounted to 2.16.

As to YYPPGDAFASGSDDATCRLYDLRA [S4P], the protein stability index amounted to 3.78.

On to YYPTGDAFASGSDDATCRLYDLRA [S4T], for which the protein stability index was 2.86.

Turning to YYPLGDAFASGSDDATCRLYDLRA [S4L], the protein stability index is 2.52.

In the case of YYPAGDAFASGSDDATCRLYDLRA [S4A], the protein stability index is 3.06.

As for YYPMGDAFASGSDDATCRLYDLRA [S4M], the protein stability index stood at 3.45.

Consider YYPGGDAFASGSDDATCRLYDLRA [S4G], for which the protein stability index was determined as 3.14.

As for YYPFGDAFASGSDDATCRLYDLRA [S4F], the protein stability index came out at 2.29.

Consider YYPEGDAFASGSDDATCRLYDLRA [S4E], for which the protein stability index came out at 3.72.

As to YYPNGDAFASGSDDATCRLYDLRA [S4N], the protein stability index amounted to 3.03.

For the variant YYPIGDAFASGSDDATCRLYDLRA [S4I], the protein stability index amounted to 2.8.

Regarding YYPDGDAFASGSDDATCRLYDLRA [S4D], the protein stability index stood at 3.56.

In the case of YYPQGDAFASGSDDATCRLYDLRA [S4Q], the protein stability index was found to be 3.48.

With YYPRGDAFASGSDDATCRLYDLRA [S4R], the protein stability index was found to be 2.46.

Variants of B2 are the subject of the next series. The description is as above. As to conditions: c terminus: a fixed tail appended.
As to VVTSAREHIYDLRSLENYHFVDWH [E23W], the protein stability index worked out at 3.37.

With VVTSAREHIYDLRSLENYHFVDNH [E23N], the protein stability index worked out at 1.96.

As for VVTSAREHIYDLRSLENYHFVDAH [E23A], the protein stability index worked out at 2.64.

As for VVTSAREHIYDLRSLENYHFVDPH [E23P], the protein stability index was found to be 1.96.

Take VVTSAREHIYDLRSLENYHFVDCH [E23C]: the protein stability index was 1.64.

VVTSAREHIYDLRSLENYHFVDIH [E23I]: the protein stability index was determined as 2.54.

Turning to VVTSAREHIYDLRSLENYHFVDDH [E23D], the protein stability index was 2.86.

As for VVTSAREHIYDLRSLENYHFVDRH [E23R], the protein stability index came out at 1.72.

With VVTSAREHIYDLRSLENYHFVDMH [E23M], the protein stability index came to 1.9.

For VVTSAREHIYDLRSLENYHFVDYH [E23Y], the protein stability index was found to be 1.26.

As to VVTSAREHIYDLRSLENYHFVDQH [E23Q], the protein stability index was 2.55.

With VVTSAREHIYDLRSLENYHFVDSH [E23S], the protein stability index turned out to be 2.36.

For VVTSAREHIYDLRSLENYHFVDLH [E23L], the protein stability index is 1.93.

With VVTSAREHIYDLRSLENYHFVDGH [E23G], the protein stability index came to 3.21.

Consider VVTSAREHIYDLRSLENYHFVDHH [E23H], for which the protein stability index stood at 2.21.

Regarding VVTSAREHIYDLRSLENYHFVDVH [E23V], the protein stability index amounted to 2.07.

For VVTSAREHIYDLRSLENYHFVDTH [E23T], the protein stability index came to 2.2.

Turning to VVTSAREHIYDLRSLENYHFVDFH [E23F], the protein stability index was determined as 2.51.

For VVTSAREHIYDLRSLENYHFVDKH [E23K], the protein stability index was 2.33.

For the variant VVTSAREHIYDLRSLENYHFLDEH [V21L], the protein stability index is 2.82.

Consider VVTSAREHIYDLRSLENYHFNDEH [V21N], for which the protein stability index amounted to 3.44.
